± gives the uncertainty stated by the source.
Experiment: amyloid nucleation score (Sup35N fusion, yeast selection) (log enrichment); library NNK2; higher = more nucleation; inactive = no reads after selection
Summary of the method: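 After 24 hours of induction with 100 μM copper sulfate, psi-negative yeast expressing peptides of 20 random codons fused to Sup35N were grown for 7 days at 30°C on medium lacking adenine and uracil. Input and output plasmid inserts were sequenced with Illumina, and sequences with under 100 input reads were discarded. Scores for nucleation are the DiMSum log enrichment of output over input reads, centred on the mode score of non-aggregating sequences.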

Work on YSFRGWSSSVWVTGWCGRSA yielded an amyloid nucleation score of 0.45 ± 0.62.

APTCSKCCIFMQC showed an amyloid nucleation score of 5.99 ± 0.072.

For WTRCPQSRYHVLVRVYSYWA, the amyloid nucleation score was 0.193 ± 0.27.

Substance SRFRGKLCFGWHKYAFGEVF has an amyloid nucleation score of -0.711 ± 0.79.

For RRPKHYMAVMSESVGLQCRL, the amyloid nucleation score was 0.173 ± 0.37.

SHWEMRQVGSVVVGIKGKGN gave an amyloid nucleation score of 0.972 ± 0.67.

FTLALSYITRTKSTHAC gave an amyloid nucleation score of -0.27 ± 1.1.

Work on DTGNPVVWKRTVNCLSQVLW yielded an amyloid nucleation score of 0.368 ± 0.62.

For VLCLNFHGANVGWDLTTVYT, the amyloid nucleation score was 1.02 ± 0.17.

Substance TGILMWAGLQVHV has an amyloid nucleation score of 1.86 ± 0.13.

Work on LDIYYFKKNSWAFHGSAGYP yielded an amyloid nucleation score of 1.87 ± 0.11.

Substance DDLGMTFRLG has an amyloid nucleation score of -0.337 ± 0.79.

With NWGTGQPYNRMCMVH the amyloid nucleation score was “inactive”.

For LGYFFGSTFSRAVLFVRLRR, the amyloid nucleation score was -0.097 ± 0.52.

For LSFSNPWFMIKSRDMFVCIG, the amyloid nucleation score was 0.792 ± 0.8.

Substance RGSGKCYRAGFMIAIVTHPL has an amyloid nucleation score of 1.5 ± 0.41.

For ITIQKIVEYISLNPEDT, the amyloid nucleation score was 5.878 ± 0.055.

In the case of FYIFPQAFRLWKSLS, the amyloid nucleation score is reported as “inactive”.

With QLVGSLGGAQGTAGRYRYTG the amyloid nucleation score was 0.658 ± 0.51.

Work on KGTYNDIMLRYACCMAGVKR yielded an amyloid nucleation score of -0.053 ± 0.49.

Substance FRGIGWAC has an amyloid nucleation score of 0.907 ± 0.47.

In the case of LSNKRKVSSLLM, the amyloid nucleation score is reported as “inactive”.

In the case of LRARTVVGEYCYSLYMQFVM, the amyloid nucleation score is reported as 0.213 ± 0.43.

With VICLTIYRIDECLVCLLYVA the amyloid nucleation score was -0.405 ± 0.33.

In the case of NWVRINYWLRAIIKSELRVG, the amyloid nucleation score is reported as -0.155 ± 0.49.

NYLSLVGRFNMGWGESNGRR gave an amyloid nucleation score of 5.888 ± 0.058.

With SIGWRPPCLVFDVGWRREGQ the amyloid nucleation score was -0.109 ± 0.42.

For TRWSHK, the amyloid nucleation score was “inactive”.

In the case of TLSCKFIKGWLIQQYSHNKD, the amyloid nucleation score is reported as -0.187 ± 0.76.

Substance MISVVRKPPLIISVIRSRWD has an amyloid nucleation score of 0.687 ± 0.47.

Substance VWVCSRTGQSQYIISYTALW has an amyloid nucleation score of 1.65 ± 0.2.

For IIGASCTNNSRMVLVWATVF, the amyloid nucleation score was -0.76 ± 1.

DNCIDSCCYPLVSRVLEL showed an amyloid nucleation score of 0.354 ± 0.64.

YQGNIRVGISRSRK showed an amyloid nucleation score of 0.36 ± 0.41.

With YVLRYYALVLYFLICWYYAY the amyloid nucleation score was 0.215 ± 0.57.

With IRECLVRSATSFLLDHKRRC the amyloid nucleation score was -0.383 ± 1.

Work on YGTCFS yielded an amyloid nucleation score of 0.191 ± 0.47.

KGGNIHSRVTYR gave an amyloid nucleation score of -0.669 ± 0.37.

Work on MCVYCVDYWGACRLEILALW yielded an amyloid nucleation score of -0.423 ± 0.41.

Work on SKSEIHCYLMMGRHLFG yielded an amyloid nucleation score of 4.5 ± 0.11.

Work on FYVVALGYKIVLCTMFYMLE yielded an amyloid nucleation score of -1.16 ± 0.31.

In the case of HRYISNISKYESKNWRVPVG, the amyloid nucleation score is reported as “inactive”.

FSQGYWLLMA gave an amyloid nucleation score of 0.305 ± 0.23.

In the case of RHLVIYRLVNCKSARLSRTL, the amyloid nucleation score is reported as “inactive”.

HSKTYLKGRLCNSLVWSYES showed an amyloid nucleation score of 0.712 ± 0.47.

Substance KCCILMLKA has an amyloid nucleation score of 0.745 ± 0.49.

Substance YMLNHVIQNMSSWCEVT has an amyloid nucleation score of -0.103 ± 0.34.

WVIVRLIITTDVQCNYVFLP gave an amyloid nucleation score of 0.248 ± 0.38.

VLMINWMKVADFHEYFFICH showed an amyloid nucleation score of 6.3 ± 0.066.

SVVVWDSSPCIGGSRVADS showed an amyloid nucleation score of 0.56 ± 0.57.

LLERSRSSIMCTTNRSLELI showed an amyloid nucleation score of 3.18 ± 0.055.

With VGGWGWGHCPQRRQHVSLPV the amyloid nucleation score was 0.825 ± 0.53.

Substance MSKGVYIYNIYYLVMSGVPL has an amyloid nucleation score of 4.9 ± 0.063.

THSWGFSLYTFLVYINLSYI gave an amyloid nucleation score of -0.545 ± 1.

For LIMYR, the amyloid nucleation score was -0.83 ± 0.3.

In the case of MFLFGASLRIIRVVLTYELL, the amyloid nucleation score is reported as “inactive”.

For VGNIGSSTC, the amyloid nucleation score was -0.159 ± 0.45.

With KLQLVTLW the amyloid nucleation score was 3.66 ± 0.072.

LYSDGVIDMRRLCKVL gave an amyloid nucleation score of -0.841 ± 0.62.

In the case of WSYLVLSPMRRNRVRMVHII, the amyloid nucleation score is reported as -0.517 ± 0.63.

ICISWPINLCMV gave an amyloid nucleation score of 2.6 ± 0.22.

RLYCQRFPRFENITIWELLL showed an amyloid nucleation score of -1.71 ± 0.54.

For FDYVMFSDIVWSYTKNDALM, the amyloid nucleation score was -0.111 ± 0.63.

In the case of MSLVSRNSTSKHLNIVFSLI, the amyloid nucleation score is reported as 5.057 ± 0.045.

Work on WVSRTNELFGPDRLWIDLWH yielded an amyloid nucleation score of -0.01 ± 1.

Substance NMFSLWVYKLAMFWIY has an amyloid nucleation score of -0.701 ± 1.1.

With CDSRCRYLAEYRFI the amyloid nucleation score was 0.151 ± 0.27.

In the case of LDLMKSSLGCQKG, the amyloid nucleation score is reported as -0.001 ± 0.23.

In the case of FDYFF, the amyloid nucleation score is reported as “inactive”.

In the case of NSLLNFVFSVYVKACIIPYT, the amyloid nucleation score is reported as “inactive”.

PLRNGDGVSFLGSVLSWPQA showed an amyloid nucleation score of -0.294 ± 1.1.

With NNVGWVLHDGRFFSVSHYIA the amyloid nucleation score was 0.294 ± 1.1.

With FCLFW the amyloid nucleation score was “inactive”.

In the case of SGCASSSDTFDRSLCCEYTL, the amyloid nucleation score is reported as 0.295 ± 1.

For CMLEIVLLEDFQG, the amyloid nucleation score was -0.632 ± 0.32.

In the case of GLNCTIV, the amyloid nucleation score is reported as 1.67 ± 0.32.

Substance TVWGYSSDLKLLEFISIGTQ has an amyloid nucleation score of 2.71 ± 0.12.

For WVYKWIWRLFDGFHHQLMLS, the amyloid nucleation score was “inactive”.

YLLSNWTNKVSWFLCVRPQS gave an amyloid nucleation score of 2.23 ± 0.12.

In the case of FMTSWTVYSSRAYLHENVGT, the amyloid nucleation score is reported as 1.08 ± 0.37.

Work on LCFYPVTTCKPIFRPLYVLP yielded an amyloid nucleation score of 0.562 ± 0.45.

Substance WFDGDQDSNRQTVPIPQLPP has an amyloid nucleation score of 0.549 ± 0.45.

Substance YRLVHNSKREPGWRSCEWDH has an amyloid nucleation score of 0.046 ± 0.63.

NMFIRKEYWSTLALEIFWWS showed an amyloid nucleation score of -0.441 ± 0.4.

For YYLGWIMLVHYGSWTTCLVR, the amyloid nucleation score was 0.531 ± 0.64.

For WYSMISLSRTNIYRMFYVPV, the amyloid nucleation score was -0.453 ± 0.53.

IVLLINRYMILMGEPNHA showed an amyloid nucleation score of 0.17 ± 0.35.

For YIVLCYSFRFVFF, the amyloid nucleation score was “inactive”.

Substance MWFWTLCIF has an amyloid nucleation score of 8.025 ± 0.027.

For NYQGI, the amyloid nucleation score was -0.874 ± 0.56.

With SSREYEEGMAGTGGLELLSL the amyloid nucleation score was 1.16 ± 0.44.

Work on NPGVDQTHFLGFLI yielded an amyloid nucleation score of -1.85 ± 1.1.

Substance NQYMFFGSHRD has an amyloid nucleation score of 0.424 ± 0.49.

In the case of EFIAISLSFVPLYRVVSGSG, the amyloid nucleation score is reported as -0.674 ± 0.79.

With WRPLWSRAIFGS the amyloid nucleation score was “inactive”.

Work on SRWKGSRF yielded an amyloid nucleation score of 0.764 ± 0.26.

SDHFKWV gave an amyloid nucleation score of -1.05 ± 1.

Work on TPRIS yielded an amyloid nucleation score of 0.647 ± 0.8.

Work on SKLTRSIENLLF yielded an amyloid nucleation score of 0.949 ± 0.15.

With WSNGR the amyloid nucleation score was 0.329 ± 0.44.

For LLNCNCIVV, the amyloid nucleation score was 8.569 ± 0.031.

Substance INVLFRVSPRISAVRNVCST has an amyloid nucleation score of -0.271 ± 0.36.

IFEHS showed an amyloid nucleation score of 0.346 ± 0.61.

FRMWGLC showed an amyloid nucleation score of 0.43 ± 0.36.

Work on VSKRNDLQTSFLYMMHLALQ yielded an amyloid nucleation score of -0.536 ± 1.

For TVSMNMRCCVECHYIKERYL, the amyloid nucleation score was 4.16 ± 0.051.

Substance YLVNNNFFVTIVILVWRTGV has an amyloid nucleation score of 1.39 ± 0.18.

Substance SRLMVGGQSLVSW has an amyloid nucleation score of 5.716 ± 0.042.

For IMKYAHFNLK, the amyloid nucleation score was 0.788 ± 0.51.

FAYLPSTVVGVSHSTLGPLI showed an amyloid nucleation score of 0.221 ± 0.43.

With TAFNIVSCSGLCSYYQFRF the amyloid nucleation score was 8.109 ± 0.03.

In the case of SMFCVPFMINLVLYVMGEVW, the amyloid nucleation score is reported as 0.288 ± 0.64.

ALPVLIINERTRWGVTLLLP showed an amyloid nucleation score of 0.421 ± 0.39.

With DICAIIVHWCDDLNVAYWYL the amyloid nucleation score was 0.058 ± 1.

For MMVAGLFLGAFFLISTKGVK, the amyloid nucleation score was 4.43 ± 0.064.

SLGEGISFIVWCDGILLLGC gave an amyloid nucleation score of -1.15 ± 0.76.

With TYTYSSCRIARRS the amyloid nucleation score was -0.559 ± 0.26.

YPYSPLSKRRNLRWINFVRC gave an amyloid nucleation score of -1.46 ± 1.1.

YYSPQSVKEYPRNTYRLIKA showed an amyloid nucleation score of -0.613 ± 0.45.

RSGNRGPVARYVGYERCMGK gave an amyloid nucleation score of 0.629 ± 0.56.

With PNRIFFTLFCLTKYIIPMFM the amyloid nucleation score was -1.33 ± 0.75.

In the case of FGGINIGCGQCLFVVR, the amyloid nucleation score is reported as 8.503 ± 0.053.

With SDGEKFG the amyloid nucleation score was -0.256 ± 1.1.

For YASISI, the amyloid nucleation score was “inactive”.

For WPRFTCCPTYYICIAQSPGQ, the amyloid nucleation score was 9.807 ± 0.035.

In the case of CLDPLAMSN, the amyloid nucleation score is reported as “inactive”.

For LQMLLHDQTEMFEYT, the amyloid nucleation score was -0.112 ± 0.28.

Reference: the supplement of paper PMC12042874
